Reference: patent US20090286242A1, “MicroRNA Expression Profiling and Uses Thereof” (COLD SPRING HARBOR LABORATORY, priority 2007, published 2009)

How the values were obtained:
[1] = system: Comma-Dβ cells; experiment: ALDEFLUOR / Sca-1 FACS analysis of Comma-Dβ cell compartments; type: cell-based, mouse; settings: ectopic expression in Comma-Dβ cells
[2] = system: miR-205; experiment: Stem-loop qRT-PCR of mature miRNA in Wnt-1-expressing Comma-Dβ cells; type: cell-based, mouse; settings: data not shown
Method: 1-4 μg of total RNA from sorted cells was used for small RNA cloning performed as described in Pfeffer et al, 2005 (incorporated by reference). Illumina 1G sequencing and analysis was performed as described Stark et al. 2007 (incorporated by reference). miRNA expression analyses mature miRNAs were quantified using the TaqMan MicroRNA Assays previously described by Chen et al., 2005 (Applied Biosystems, incorporated by reference).
Data was normalized to Actin using SuperScript III SYBR Green One-Step qRT-PCR system (Invitrogen). The experiments were repeated twice and all reactions were run in triplicate.

B1: Wnt-1: Wnt-1 ectopically expressed from an MSCV-hygro vector (Wnt-1MSCV) (protein, UniProt P04426 28-370, looked up)
Proto-oncogene Wnt-1: ANSSGRWWGIVNIASSTNLLTDSKSLQLVLEPSLQLLSRKQRRLIRQNPGILHSVSGGLQSAVRECKWQFRNRRWNCPTAPGPHLFGKIVNRGCRETAFIFAITSAGVTHSVARSCSEGSIESCTCDYRRRGPGGPDWHWGGCSDNIDFGRLFGREFVDSGEKGRDLRFLMNLHNNEAGRTTVFSEMRQECKCHGMSGSCTVRTCWMRLPTLRAVGDVLRDRFDGASRVLYGNRGSNRASRAELLRLEPEDPAHKPPSPHDLVYFEKSPNFCTYSGRLGTAGTAGRACNSSSPALDGCELLCCGRGHRTRTQRVTERCNCTFHWCCHVSCRNCTHTRVLHECL
In the case of B1, the “increase in the ALDH bright Sca-1 high population” value [1] is reported as 3.5 fold and the “miR-205 level compared to empty vector control cells” value [2] is reported as 6 fold.
